T1: recombinant human Trop-2/Fc/His fusion protein (manufactured by R&D) (human, UniProt P09758 27-274, limits assumed)
T1 construct: Bought reagent; also called Trop-2/Fc/His chimeric protein; recombinant Trop-2
T1 sequence: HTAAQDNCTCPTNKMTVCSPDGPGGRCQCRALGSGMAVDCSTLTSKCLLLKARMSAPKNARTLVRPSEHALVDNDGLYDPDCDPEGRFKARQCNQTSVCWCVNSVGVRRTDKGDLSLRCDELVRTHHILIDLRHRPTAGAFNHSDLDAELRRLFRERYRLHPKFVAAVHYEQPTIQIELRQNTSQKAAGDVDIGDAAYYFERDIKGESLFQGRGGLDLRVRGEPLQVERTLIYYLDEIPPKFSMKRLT


What was measured:
[1] = target: T1, recombinant human Trop-2/Fc/His fusion …; experiment: SPR (Biacore T100), Trop-2/Fc/His captured by Tetra-His antibody, antibody as analyte, Bivalent Analyte model, mean of duplicates
Description: (§1) All the operations described below were carried out using Biacore T100 (manufactured by GE Healthcare Bio-sciences). Tetra-His antibody (manufactured by Qiagen) was immobilized so as to be 12,000 RU (resonance unit) on the CM5 sensor chip (manufactured by GE Healthcare Bio-sciences) using Amine Coupling Kit (manufactured by GE Healthcare Bio-sciences). After recombinant Trop-2/Fc/His fusion proteins (manufactured by R&D) were allowed to be captured on the sensor chip, anti-Trop-2 antibodies which were diluted in five-fold steps, starting from a concentration of 5,000 ng/ml were flowed at 30 μL/min, followed by obtaining sensorgrams at each concentration.
(§2) Using the software for analysis accompanied with the equipment, the results were analyzed based on Bivalent Analyte model to obtain the binding rate constant and the dissociation rate constant for binding of each antibody to a recombinant human Trop-2/Fc/His fusion protein.
(§3) In the same manner described in Example 3(2), the affinity of KM4591 and six kinds of KM4097 humanized antibodies (HV0LV0, HV3aLV0, HV4LV0, HV5LV0, HV10LV2 and HV10LV4) obtained in Example 8 to human Trop-2/Fc/His fusion proteins (manufactured by R&D) were evaluated.

[2] = target: T1, recombinant human Trop-2/Fc/His fusion …; experiment: SPR (Biacore T100) on captured Trop-2/Fc/His; summary sentence of Table 6
Description: as §1, §2, §3

[3] = target: T2, Trop-2/FLAG/Fc, fusion protein of Trop-2 extracellular region, FLAG tag and Fc (human); experiment: Western blot, KM4590 as primary antibody, Trop-2/FLAG/Fc in lane 1, non-reducing and reducing SDS-PAGE [a]
T2 construct: Expressed in HEK293F; The encoding DNA carries a secretion signal
Description: Each protein of Trop-2/FLAG/Fc, Mutant A, Mutant B, or Mutant C prepared in this Example 2 was electrophoresed under reducing condition (treatment of samples in the presence of 10 mmol/l DTT at 95° C. for 5 minutes) or non-reducing condition (treatment of samples in the absence of DTT at room temperature for 10 minutes) by an SDS-PAGE method. The proteins in the gel were transferred to polyvinylidene difluoride (PVDF) membrane at 200 mA for 1 hour using a semi-dry method.
After the blocking of the PVDF membrane was carried out using PBS containing 5% BSA at room temperature for 1 hour, the PVDF membrane was soaked in the primary antibody solution which was prepared with TBST [an aqueous solution which was prepared by diluting Tris buffered saline (10× concentration) (pH 7.4) manufactured by Nakarai Tesque Inc.) ten-fold and further adding 0.1% concentration of 0.05% polyoxyethylene (20) sorbitan monolaurate (manufactured by Wako Pure Chemical Industries, Ltd., equivalent to ICI Inc.'s trademark Tween 20)] comprising 0.1% BSA to react for 1 hour at room temperature or overnight at 4° C.
Using the imaging system LAS4000 mini (manufactured by Fujifilm), the luminescence images were obtained. […]

[4] = target: T1, recombinant human Trop-2/Fc/His fusion …; experiment: SPR (Biacore T100), Trop-2/Fc/His captured by Tetra-His antibody, antibody as analyte, Bivalent Analyte model, mean of duplicates; remark: listed apart in the source
Description: as §1, §2
(1) Binding Activity of Anti-Trop-2 Human Chimeric Antibody to Recombinant Human Trop-2 using Biacore In the same manner described in Example 3, the affinity of KM4591 and cAR47A6.4.2-P to human Trop-2/Fc/His fusion proteins (manufactured by R&D) were measured. ka, kd, and KD (kd/ka) of each antibody are shown in Table 5 (the mean values of duplicate experiments).

[5] = target: T1, recombinant human Trop-2/Fc/His fusion …; experiment: SPR (Biacore T100), Trop-2/Fc/His captured by Tetra-His antibody on CM5 chip, antibody as analyte, Bivalent Analyte model, mean of duplicates
Description: as §1, §2

| Kd [1] [nM] | koff [1] [s⁻¹] | kon [1] [M⁻¹ s⁻¹] | Kd [2] [nM] | Binder | further results |
| --- | --- | --- | --- | --- | --- |
| 0.53 | 0.00016 | 330000 | ≤ 1 | KM4097 humanized antibody HV0LV0 (antibody, V domains shown, Expressed from pKANTEX93 (human constant regions) in FUT8 knockout CHO cells; no fucose attached) VH: QVQLVQSGAEVKKPGASVKVSCKASGYTFTIYWLGWVRQAPGQGLEWMGNIFPGSAYINYNEKFKGRVTITADTSTSTAYMELSSLRSEDTAVYYCAREGSNSGYWGQGTLVTVSS VL: DIVMTQSPDSLAVSLGERATINCKSSQSLLNSGNQQNYLAWYQQKPGQPPKLLIYGASTRESGVPDRFSGSGSGTDFTLTISSLQAEDVAVYYCQSDHIYPYTFGQGTKLEIK |  |
| 0.49 | 0.00019 | 383000 | ≤ 0.5 | KM4097 humanized antibody HV5LV0 (antibody, V domains shown, Expressed from pKANTEX93 (human constant regions) in FUT8 knockout CHO cells; no fucose attached) VH: QVQLVQSGAEVKKPGASVKVSCKASGYTFTIYWLGWVKQAPGQGLEWIGNIFPGSAYINYNEKFKGKATITADTSTSTAYMELSSLRSEDTAVYFCAREGSNSGYWGQGTLVTVSS VL: DIVMTQSPDSLAVSLGERATINCKSSQSLLNSGNQQNYLAWYQQKPGQPPKLLIYGASTRESGVPDRFSGSGSGTDFTLTISSLQAEDVAVYYCQSDHIYPYTFGQGTKLEIK |  |
| 0.4 | 0.000148 | 375000 | ≤ 0.5 | KM4097 humanized antibody HV10LV2 (antibody, V domains shown, Expressed from pKANTEX93 (human constant regions) in FUT8 knockout CHO cells; no fucose attached) VH: QVQLVQSGPEVVKPGASVKISCKASGYTFTIYWLGWVKQAPGQGLEWIGNIFPGSAYINYNEKFKGKATLTADTSTSTAYMELSSLRSEDTAVYFCAREGSNSGYWGQGTLLTVSS VL: DIVMTQSPDSLAVSLGERVTINCKSSQSLLNSGNQQNYLAWYQQKPGQPPKLLIYGASTRESGVPDRFSGSGSGTDFTLTISSVQAEDVAVYYCQSDHIYPYTFGQGTKLEIK |  |
| 0.3 | 0.00016 | 506000 | ≤ 0.5 | KM4097 humanized antibody HV3aLV0 (antibody, V domains shown, Expressed from pKANTEX93 (human constant regions) in FUT8 knockout CHO cells; no fucose attached) VH: QVQLVQSGPEVKKPGASVKVSCKASGYTFTIYWLGWVRQAPGQGLEWMGNIFPGSAYINYNEKFKGKVTITADTSTSTAYMELSSLRSEDTAVYFCAREGSNSGYWGQGTLVTVSS VL: DIVMTQSPDSLAVSLGERATINCKSSQSLLNSGNQQNYLAWYQQKPGQPPKLLIYGASTRESGVPDRFSGSGSGTDFTLTISSLQAEDVAVYYCQSDHIYPYTFGQGTKLEIK |  |
| 0.42 | 0.000126 | 335000 | ≤ 0.5 | KM4097 humanized antibody HV4LV0 (antibody, V domains shown, Expressed from pKANTEX93 (human constant regions) in FUT8 knockout CHO cells; no fucose attached) VH: QVQLVQSGPEVKKPGASVKVSCKASGYTFTIYWLGWVKQAPGQGLEWIGNIFPGSAYINYNEKFKGRVTITADTSTSTAYMELSSLRSEDTAVYFCAREGSNSGYWGQGTLVTVSS VL: DIVMTQSPDSLAVSLGERATINCKSSQSLLNSGNQQNYLAWYQQKPGQPPKLLIYGASTRESGVPDRFSGSGSGTDFTLTISSLQAEDVAVYYCQSDHIYPYTFGQGTKLEIK |  |
|  |  |  |  | anti-Trop-2 human chimeric antibody KM4590 (antibody, human IgG1, V domains shown, KM4097 variable regions joined to human IgG1 H chain constant region and human kappa L chain constant region (pKANTEX93); made in CHO/DG44 cells, fucose content 100%) VH: QVQLQQSGPELVRPGTSVRISCKASGYTFTIYWLGWVKQRPGHGLEWIGNIFPGSAYINYNEKFKGKATLTADTSSSTAYMQLSSLTSEDSAVYFCAREGSNSGYWGQGTTLTVSS VL: DIVMTQSPSSLSVSAGEKVTMTCKSSQSLLNSGNQQNYLAWYQQKPGQPPKLLIYGASTRESGVPDRFTGSGSGTDFTLTINSVQAEDLAVYYCQSDHIYPYTFGGGTKLEIK | binding result [3]: binds |
| 0.36 | 0.000113 | 323000 |  | anti-Trop-2 human chimeric antibody KM4591 (antibody, human IgG1, V domains shown, Same polypeptides as KM4590 (human IgG1, kappa), made in FUT8 knockout CHO/DG44 cells, fucose content 0%) VH: QVQLQQSGPELVRPGTSVRISCKASGYTFTIYWLGWVKQRPGHGLEWIGNIFPGSAYINYNEKFKGKATLTADTSSSTAYMQLSSLTSEDSAVYFCAREGSNSGYWGQGTTLTVSS VL: DIVMTQSPSSLSVSAGEKVTMTCKSSQSLLNSGNQQNYLAWYQQKPGQPPKLLIYGASTRESGVPDRFTGSGSGTDFTLTINSVQAEDLAVYYCQSDHIYPYTFGGGTKLEIK | Kd [4]: 0.143 nM; koff [4]: 5.8e-05 s⁻¹; kon [4]: 416000 M⁻¹ s⁻¹ |
| 0.37 | 0.000116 | 342000 | ≤ 0.5 | KM4097 humanized antibody HV10LV4 (antibody, V domains shown, Expressed from pKANTEX93 (human constant regions) in FUT8 knockout CHO cells; no fucose attached) VH: QVQLVQSGPEVVKPGASVKISCKASGYTFTIYWLGWVKQAPGQGLEWIGNIFPGSAYINYNEKFKGKATLTADTSTSTAYMELSSLRSEDTAVYFCAREGSNSGYWGQGTLLTVSS VL: DIVMTQSPDSLAVSAGERVTMNCKSSQSLLNSGNQQNYLAWYQQKPGQPPKLLIYGASTRESGVPDRFSGSGSGTDFTLTISSVQAEDVAVYYCQSDHIYPYTFGQGTKLEIK |  |
|  |  |  |  | anti-Trop-2 mouse monoclonal antibody KM4097 (antibody, V domains shown) VH: QVQLQQSGPELVRPGTSVRISCKASGYTFTIYWLGWVKQRPGHGLEWIGNIFPGSAYINYNEKFKGKATLTADTSSSTAYMQLSSLTSEDSAVYFCAREGSNSGYWGQGTTLTVSS VL: DIVMTQSPSSLSVSAGEKVTMTCKSSQSLLNSGNQQNYLAWYQQKPGQPPKLLIYGASTRESGVPDRFTGSGSGTDFTLTINSVQAEDLAVYYCQSDHIYPYTFGGGTKLEIK | Kd [5]: 0.261 nM; koff [5]: 0.000101 s⁻¹; kon [5]: 389000 M⁻¹ s⁻¹ |
|  |  |  |  | cAR47A6.4.2-P, defucosylated human IgG1 chimeric antibody of AR47A6.4.2 (antibody, V domains shown, No core fucose on the Fc N-glycan (made in FUT8 knockout CHO/DG44 cells); the letters do not carry this.) VH: QIQLVQSGPELKKPGETVKISCKASGYTFTNYGMNWVKQAPGKGLKWMGWINTKTGEPTYAEEFKGRFAFSLETSASTAYLQINNLKKEDTATYFCGRGGYGSSYWYFDVWGAGTTVTVSS VL: DIVMTQSHKFMSTSVGDRVSITCKASQDVSIAVAWYQQKPGQSPKVLIYSASYRYTGVPDRFTGSGSGTDFTFTISRVQAEDLAVYYCQQHYITPLTFGAGTKLELK | Kd [4]: 1.01 nM; koff [4]: 0.000218 s⁻¹; kon [4]: 221000 M⁻¹ s⁻¹ |
